Test results from PMC5625703.

Biological target: pGBKT7-53 (control bait)
Experiment: two-hybrid; β-galactosidase activity assay (Yeast β-galactosidase Assay Kit) on a colony from a DDO plate, 37 °C, OD 420 nm; average of three measurements

## pGADT7-T (control prey) (natural protein)
  β-galactosidase activity: 401 units
